According to patent US12715909 (ENTHERA S R L, dated 2026):

B1: D10 scFv (scFv, V domains shown)
VH: QVQLVQSGAEVKKPGASVKVSCKASGYTFTSYGISWVRQAPGQGLEWMGWISAYNGNTNYAQKLQGRVTMTTDTSTSTAYMELRSLRSDDTAVYYCARDRYLGWFDPWGQGTLVTVSS
VL: QSALTQPASVSGSPGQSITISCTGTSSDVGGYNYVSWYQQHPGKAPKLMIYEVSNRPSGVSNRFSGSKSGNTASLTISGLQAEDEADYYCSSYTSSSTPYVFGTGTKLTVL
notes: scFv as screened by ELISA
B2: C02 scFv (scFv, V domains shown)
VH: QVQLVQSGAEVKKPGASVKVSCKASGYTFTSYGISWVRQAPGQGLEWMGWISAYNGNTNYAQKLQGRVTMTTDTSTSTAYMELRSLRSDDTAVYYCARGRGVIDYWGQGTLVTVSS
VL: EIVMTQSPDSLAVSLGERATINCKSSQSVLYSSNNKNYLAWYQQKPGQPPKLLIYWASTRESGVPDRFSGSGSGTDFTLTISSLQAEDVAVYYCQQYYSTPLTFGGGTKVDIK
notes: scFv as screened by ELISA
B3: F05 scFv (scFv, V domains shown)
VH: QVQLVQSGAEVKKPGASVKVSCKASGYTFTSYGISWVRQAPGQGLEWMGWISAYNGNTNYAQKLQGRVTMTTDTSTSTAYMELRSLRSDDTAVYYCARGRGSFDPWGQGTLVTVSS
VL: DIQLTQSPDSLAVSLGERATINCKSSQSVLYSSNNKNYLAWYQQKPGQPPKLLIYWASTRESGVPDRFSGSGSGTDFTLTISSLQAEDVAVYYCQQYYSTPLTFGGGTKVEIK
notes: scFv as screened by ELISA
B4: B11 scFv (scFv, V domains shown)
VH: QVQLVQSGAEVKKPGSSVKVSCKASGGTFSSYAISWVRQAPGQGLEWMGGIIPIFGTANYAQKFQGRVTITADKSTSTAYMELSSLRSEDTAVYYCARNVRLPGWFDPWGQGTLVTVSS
VL: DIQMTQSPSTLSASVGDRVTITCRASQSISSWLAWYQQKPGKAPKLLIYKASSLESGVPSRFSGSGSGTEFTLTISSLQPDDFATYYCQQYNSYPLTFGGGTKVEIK
B5: C11 scFv (scFv, V domains shown)
VH: EVQLVESGGGVVQPGRSLRLSCAASGFTFSSYGMHWVRQAPGKGLEWVAVISYDGSNKYYADSVKGRFTISRDNSKNTLYLQMNSLRAEDTAVYYCARGDYSDTSGTDFFQHWGQGTQVTVSS
VL: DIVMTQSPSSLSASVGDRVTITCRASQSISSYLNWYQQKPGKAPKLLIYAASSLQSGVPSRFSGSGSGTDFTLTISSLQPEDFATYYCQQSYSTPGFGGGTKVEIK
notes: scFv as screened by ELISA
B6: C12 scFv (scFv, V domains shown)
VH: QVQLVQSGAEVKKPGSSVKVSCKASGGTFSSYAISWVRQAPGQGLEWMGGIIPIFGTANYAQKFQGRVTITADESTSTAYMELSSLRSEDTAVYYCATLGRELSFDYWGQGTLVTVSS
VL: DIVMTQSPSSLSASVGDRVTITCRASQSISSYLNWYQQKPGKAPKLLIYAASSLQSGVPSRFSGSGSGTDFTLTISSLQPEDFATYYCQQSYSESWTFGQGTTVDIK
notes: scFv as screened by ELISA
B7: B09 scFv (scFv, V domains shown)
VH: QVQLVQSGAEVKKPGASVKVSCKASGYTFTSYGISWVRQAPGQGLEWMGWISAYNGNTNYAQKLQGRVTMTTDTSTSTAYMELRSLRSDDTAVYYCARDLAVGTHGDYWGQGTLVTVSS
VL: QSALTQPASVSGSPGQSITISCTGTSSDVGGYNYVSWYQQHPGKAPKLMIYEVSNRPSGVSNRFSGSKSGNTASLTISGLQAEDEADYYCSSYTSSSTLEVVFGGGTKLTVL
notes: scFv as screened by ELISA

Key:
Test in all cases: ELISA, scFv, secondary screening
mouse IGFBP5 = biological target: T1, mouse IGFBP5 (mouse, UniProt Q07079 20-271)
T1 construct: Bought protein; in solution in BLI; also called mIGFBP-5; murine IGFBP5
T1 sequence (Q07079 20-271 limits assumed): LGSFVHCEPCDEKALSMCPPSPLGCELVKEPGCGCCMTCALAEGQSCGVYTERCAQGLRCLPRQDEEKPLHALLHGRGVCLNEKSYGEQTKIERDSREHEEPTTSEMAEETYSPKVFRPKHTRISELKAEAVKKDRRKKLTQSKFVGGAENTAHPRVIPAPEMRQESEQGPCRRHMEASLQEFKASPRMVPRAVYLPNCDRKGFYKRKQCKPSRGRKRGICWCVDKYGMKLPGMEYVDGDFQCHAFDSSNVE
Method: (§1) At the end of the discovery process, each selection output was screened for antigen-specific antibodies and the binding characteristics of monoclonal antibody clones was analysed. For this purpose, 3072 single colonies were used for scFv antibody production. […] 192 of those ELISA positive clones were selected for a secondary screening. For that purpose, a second batch of scFv were produced and tested on a broader panel of antigens: Streptavidin+biotinylated human IGFBP5, Streptavidin+biotinylated murine IGFBP5, Streptavidin, BSA, Human IGFBP1, Human IGFBP2, Human IGFBP3, Human IGFBP4, Human IGFBP5 and Human IGFBP6. […] Binding to human IGFBP1, human IGFBP2, human IGFBP3, human IGFBP4 and human IGFBP6 was not detected. […] The scFv DNA sequence was amplified by PCR and cloned into YUMAB's mammalian scFv-Fc expression vector, resulting in a genetic fusion of the scFv with a human IgG4 Fc. Bacterial clones with a correctly cloned scFv gene were used for isolation of transfection grade DNA. The DNA was used for the transient transfection of HEK cells which produced and secreted the antibody into the culture medium. The antibodies were purified by affinity chromatography (Protein A) and re-buffered in PBS. The protein concentration was determined by UV/VIS spectrometry and purity was checked by Coomassie staining. 13 of the 15 antibodies could be successfully produced in the scFv-Fc format.

human IGFBP6 = biological target: T2, human IGFBP6 (human, UniProt P24592 28-240, limits assumed)
T2 construct: Bought protein
T2 sequence (looked up): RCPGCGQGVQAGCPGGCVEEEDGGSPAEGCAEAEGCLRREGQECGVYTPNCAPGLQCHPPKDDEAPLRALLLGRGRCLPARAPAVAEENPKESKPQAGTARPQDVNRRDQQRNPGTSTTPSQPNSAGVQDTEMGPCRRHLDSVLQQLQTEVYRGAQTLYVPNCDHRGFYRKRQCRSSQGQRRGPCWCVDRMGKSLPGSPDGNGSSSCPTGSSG
Method: as §1

human IGFBP1 = biological target: T3, human IGFBP1 (human, UniProt P08833 26-259)
T3 construct: Bought protein
T3 sequence (looked up): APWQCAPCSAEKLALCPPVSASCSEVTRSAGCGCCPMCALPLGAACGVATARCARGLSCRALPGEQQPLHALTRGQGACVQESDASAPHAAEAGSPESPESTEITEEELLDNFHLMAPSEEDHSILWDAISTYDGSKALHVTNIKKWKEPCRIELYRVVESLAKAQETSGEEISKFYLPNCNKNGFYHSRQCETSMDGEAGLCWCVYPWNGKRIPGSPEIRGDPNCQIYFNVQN
Method: as §1

human IGFBP3 = biological target: T4, human IGFBP3 (human, UniProt P17936 28-291)
T4 construct: Bought protein
T4 sequence (P17936 28-291 limits assumed): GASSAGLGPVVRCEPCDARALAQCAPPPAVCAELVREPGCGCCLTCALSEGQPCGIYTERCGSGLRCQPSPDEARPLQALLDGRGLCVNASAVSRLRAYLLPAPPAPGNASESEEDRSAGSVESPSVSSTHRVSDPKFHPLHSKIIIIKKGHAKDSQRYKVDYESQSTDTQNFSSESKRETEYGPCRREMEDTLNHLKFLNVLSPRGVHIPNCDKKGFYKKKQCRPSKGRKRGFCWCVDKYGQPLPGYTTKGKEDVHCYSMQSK
Method: as §1

human IGFBP2 = biological target: T5, human IGFBP2 (human, UniProt P18065 37-325, limits assumed)
T5 construct: Bought protein
T5 sequence (looked up): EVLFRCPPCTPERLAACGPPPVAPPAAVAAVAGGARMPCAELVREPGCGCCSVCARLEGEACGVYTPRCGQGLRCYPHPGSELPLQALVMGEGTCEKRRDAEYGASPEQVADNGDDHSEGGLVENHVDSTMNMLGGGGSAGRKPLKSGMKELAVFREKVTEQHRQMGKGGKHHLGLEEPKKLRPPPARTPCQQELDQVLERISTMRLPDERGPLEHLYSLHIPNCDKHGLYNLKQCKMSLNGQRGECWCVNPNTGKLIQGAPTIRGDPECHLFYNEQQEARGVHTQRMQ
Method: as §1

human IGFBP4 = biological target: T6, human IGFBP4 (human, UniProt P22692 22-258)
T6 construct: Bought protein
T6 sequence (looked up): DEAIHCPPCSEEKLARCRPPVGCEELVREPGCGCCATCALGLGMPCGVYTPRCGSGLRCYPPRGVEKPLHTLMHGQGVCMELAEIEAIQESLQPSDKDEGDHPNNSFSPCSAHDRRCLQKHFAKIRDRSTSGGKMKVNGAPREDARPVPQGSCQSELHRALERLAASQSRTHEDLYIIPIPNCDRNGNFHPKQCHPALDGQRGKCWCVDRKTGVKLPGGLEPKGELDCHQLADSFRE
Method: as §1

human IGFBP5 = biological target: T7, human IGFBP5 (human, UniProt P24593 21-272)
T7 construct: Bought protein; in BLI it was in solution; also called hIGFBP-5
T7 sequence (P24593 21-272 limits assumed): as the sequence (Q07079 20-271 limits assumed) above, with G87R, T90V, V116I, V157I, P159S, F183L, A245T counted along it
Method: as §1

Row | Binder | binding result (mouse IGFBP5) | binding result (human IGFBP6) | binding result (human IGFBP1) | binding result (human IGFBP3) | binding result (human IGFBP2) | binding result (human IGFBP4) | binding result (human IGFBP5)
1 | B1 | binds | no binding | no binding | no binding | no binding | no binding | binds
2 | B2 | binds | no binding | no binding | no binding | no binding | no binding | binds
3 | B3 | binds | no binding | no binding | no binding | no binding | no binding | binds
4 | B4 | binds | no binding | no binding | no binding | no binding | no binding | binds
5 | B5 | binds | no binding | no binding | no binding | no binding | no binding | binds
6 | B6 | binds | no binding | no binding | no binding | no binding | no binding | binds
7 | B7 | – | no binding | no binding | no binding | no binding | no binding | –
